This series can be described thus: yeast display, Sf9 membrane polyspecificity reagent, FACS + sequencing; frameworks hold sequencing errors. In outline: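 A synthetic nanobody library was expressed on Saccharomyces cerevisiae BJ5465 by galactose induction for 36–48 hours. The library was stained for 1 hour at 4 °C with 10% biotinylated, detergent-solubilized Sf9 membrane reagent and enriched with streptavidin microbeads before FACS. Low and high (top ~1%) gates were set on anti-HA fluorescence for expression and streptavidin fluorescence for reagent binding, and each polyreactivity label reflects the gate of origin.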
Consider “QVQLVESGGGLVQAGGSLRLSCAASGSTFWFNAMGWYRQAPGKERELVAAISSTGSTNYADSVKGRFTISRDNSKNTVYLQMNSLKPEDTAVYYCATQEGPHKLDPRGYYWGQGTQVTVSS”, for which the “polyreactivity (PSR sort gate)” value is “low polyreactivity”. The value for “QVQLVESGGGLVQAGGSLRLSCAASGSTFWFNGMGWYRQAPGKERELVAVITFSTGSTSYADSVKGRCTISRDDAKNTVYLQMNSLKPEDTAVYYCAAEYVIYYWFEWLDLDYWGQGTQVTVSS” was “high polyreactivity”. The value for “QVQLVESGGGLVQAGGSLRLSCAASGSTFWFYTMGWYRQAPGKERELVATITSGGSTNYADSVKGRFTISRDNAKNTVYLQMNSLKPEDTAVYYCAASSVLTNHDYWGQGTQVTVSS” was “low polyreactivity”; that for “QVQLVESGGGLVQAGGSLRLSCAASGSTFWINAMGWYRQAPGKERELVADISHSAGNTYYADSVKGRFTISRDNAKNTVYLQMNSLKPEDTAVYYCAARRWGVRSGDYYWGQGTQVTVSS” was “low polyreactivity”. Next, “QVQLVESGGGLVQAGGSLRLSCAASGSTFWKYVMGWYRQAPGKERELVAAIDTGASTNYADSVKGRFTISRDNAKYTVYLQMNSLKPEDTAVYFCNAELWYGPDELTGDYWGQGTQVTVSS”: “low polyreactivity”; “QVQLVESGGGLVQAGGSLRLSCAASGSTFWLYAMGWYRQAPGKERELVAAIRSGDRTNYADSVKGRFTISRDNAKNTVYLQMNSLKPEDTAVYYCAAVAYLNWTPHYYWGQGTQVTVSS”: “low polyreactivity”; “QVQLVESGGGLVQAGGSLRLSCAASGSTFWPYAMGWYRQAPGKERELVAAISSSGGSTYYADSVKGRFTISRDNAKNTVYLQMNSLKPEDTAVYYCNKDYHRPYGGGSKGDYWGQGTLVTVSS”: “low polyreactivity”. For “QVQLVESGGGLVQAGGSLRLSCAASGSTFWPYAMGWYRQAPGKERELVARINSGGNTNYADSVKGRFTISRDNAKNTVYLQMNSLKPEDTAVYYCAVRSLYEPRVYYRWVVGDGNYWGQGTQLTVSS”, the “polyreactivity (PSR sort gate)” value is recorded as “low polyreactivity”. Next, “QVQLVESGGGLVQAGGSLRLSCAASGSTFWPYAMGWYRQAPGKEREMVAAITWRGGRTYYADTVKGRFTISRDNAQNTVYLQMNSLKPEDTAVSYCNTGPWSRSWSQKYEYWGQGTQVTVSS”: “high polyreactivity”; “QVQLVESGGGLVQAGGSLRLSCAASGSTFWPYTMGWYSQAPGKERELVAAISLSGGSTYYADSVKGRFTISRDIAKNTVYLQMNSLKPEDTAVYYCAAEGGYQNWHYLYDYWGQGTQVTVSS”: “low polyreactivity”. On to “QVQLVESGGGLVQAGGSLRLSCAASGSTFWSYTMGWYRPAPGKERELVARIRTTGGSTYADSVKGRFTISRDNAKNTVYLQMNSLKPEDTAVYDCAKEGWLRYYPWYGGDYWGQGTLVTVSS”, for which the “polyreactivity (PSR sort gate)” value is reported as “high polyreactivity”. Next, “QVQLVESGGGLVQAGGSLRLSCAASGSTFWTNAMGWYRQAPGKERELVAGITDTDNHELRRLCEGRFTISRDNAKNTVYVQMNSLKPEDTAVYYCNADDTYYPLGGITGYDYWGQGTQVTVSS”: “low polyreactivity”. Next, “QVQLVESGGGLVQAGGSLRLSCAASGSTFWVYTMGWYRQAPGKEREFVAAISSGVGSTHYADSVKGRFTLSRDNAKNTVYLNMNSLKPEDTAVYYCAAESYYVYLGWLEYWGQGTQVTVSS”: “high polyreactivity”; “QVQLVESGGGLVQAGGSLRLSCAASGSTFWWYAMGWYRQAPGKERELVATISWSTGSTYYADSVKGRFTISRDNAKNTVYLQMNSLKPEDTAVYYCNARIFYLFPGNSWSSSDYDYWGQGTQVTVSS”: “low polyreactivity”. Regarding “QVQLVESGGGLVQAGGSLRLSCAASGSTFWYNAMGWYRPAPGKERELVAAITWSGGSTYYADSVKGRFTISRDNAKNTVYLQMNSLKPEDTAVYYCAADHSAYSVFSGYKYGYWGQGTQVTVSS”, the “polyreactivity (PSR sort gate)” value was “low polyreactivity”. Next, “QVQLVESGGGLVQAGGSLRLSCAASGSTFWYNGMGWYRQAPGKERELVAAINWSGDSTYYADSVKGRFTISRDNAKNTVYLQMNSLKPEDTAVFYCAGGYYTYSRRSSFFVAYGYWGLGTQVTVSS”: “low polyreactivity”; “QVQLVESGGGLVQAGGSLRLSCAASGSTFWYSDMGWYRQARGKDRELVAAISGSGGRTYYADSVKGRFTISRDNAKNTVYIQMNSLKPEDTAVYYCAADDYWSADFKYNYWGQGTQVTVSS”: “low polyreactivity”; “QVQLVESGGGLVQAGGSLRLSCAASGSTFWYYAMGWYRQAPGKERELVAAITSSGSTYYADSVKGRFTISRDNAKNTVYLQMNRLKPEDTAVYYCAAEQWYCYGSYDYWGQVTQVTVSS”: “high polyreactivity”. “QVQLVESGGGLVQAGGSLRLSCAASGSTFWYYAMGWYRQAPGKERELVAAITTGGDTTNYADSVKGRFTISRDNAKNNVYLQMNSLKPADTAVYYCARDTGYDLIVLPDDSWGQGTQVTVSS”: the “polyreactivity (PSR sort gate)” value is “low polyreactivity”. Take “QVQLVESGGGLVQAGGSLRLSCAASGSTFYANAMGWYRQAPGKERELVAAISWRGGSTYYADSVKGRFTISRDNAKNTVYLQMNSLKPEDTAVYYCNRVQRYIRHGDYWGQGTQVTVSS”: the “polyreactivity (PSR sort gate)” value is recorded as “high polyreactivity”. Next, “QVQLVESGGGLVQAGGSLRLSCAASGSTFYAYAMGWYRQAPGKERELVAAIDSGGSTYYADSVKGRFTISRDNAKNTVYLQMNSLKPEDTAVYYCAVRHRYTRAYWGRVYWGQGTQVTVSS”: “low polyreactivity”. As to “QVQLVESGGGLVQAGGSLRLSCAASGSTFYAYDMGWYRQAPGKEREWVAAISRSGGNTYYADSVKGRFTISRDYAKNTVYLQMNSQKPEDTAVYYCNARSSVYGHRKGSARIPRYDYWGQGTQVTVSS”, the “polyreactivity (PSR sort gate)” value is on record as “high polyreactivity”. The value for “QVQLVESGGGLVQAGGSLRLSCAASGSTFYDYAMGWYRQAPGKERELVASIDSGDSTNYADSVKGRFTISRDNAKNTVYLQMNSLKPEDTAVYYCAADYQNTGARYWYYYWGQGTQVTVSS” was “low polyreactivity”; that for “QVQLVESGGGLVQAGGSLRLSCAASGSTFYFNAMGGYRQSPGKERELVAVIDGSGGFTYYADSVKGRFTISRDNAKNTVYLQMNSLKQEVTAVYDCNADLVYNTFLYSGGDEYDYWGQGTQVTVSS” was “high polyreactivity”. The value for “QVQLVESGGGLVQAGGSLRLSCAASGSTFYFNAMGWSRQAPGKERELVAGISSGGSTYYADSVKGRFTISRDNAKNTVYLQMNSLKPEDTAVYYCAATWLVERPVSYTEYGYWGQGTQVTVSS” was “low polyreactivity”.

For the sequence “QVQLVESGGGLVQAGGSLRLSCAASGSTFYFNAMGWYRQAPGKERELVAGIRYSGSSTYYADSVKGRFTISRDNAKNTVYLQMNSLKPEDTAVYYCAARYSVYPRVSKYSYRFNYWGQGNQVTVSS”, the “polyreactivity (PSR sort gate)” value was “high polyreactivity”. Next, “QVQLVESGGGLVQAGGSLRLSCAASGSTFYFNAMGWYRQAPGKERELVAGIYSGGSTYYADSVKGRFTISRDNAKNTVYLQMNSLKTEDTAVYYCAATWLVERPFSYTEYGYWGQGTQVTVSS”: “low polyreactivity”; “QVQLVESGGGLVQAGGSLRLSCAASGSTFYFNAMGWYRQAPGKERELVAVIDGSGGFTYDADSVKGRFTISRDNAKNTVYLQMNSLKPEDTAVYYCNADLVYNTFIYSGGDEYDYWGQGTQGTVSS”: “high polyreactivity”; “QVQLVESGGGLVQAGGSLRLSCAASGSTFYFNSMGWYRQAPGKERELVAAITSGARTKYADSVKGRFTMSRDNAKITVYLQMNSLKPEDTAVYYCSASGLYYYRYRYYYWGQGTQVTVSS”: “high polyreactivity”. On to “QVQLVESGGGLVQAGGSLRLSCAASGSTFYFYAMGGYRQAPGKERELVAVISSGGRTYYADSVKGRFTISRDNAKNTVYLQMNSLKPEDTAVYYCAASWPSSLTYYYWGQGTQVTVSS”, for which the “polyreactivity (PSR sort gate)” value is “low polyreactivity”. The value for “QVQLVESGGGLVQAGGSLRLSCAASGSTFYFYAMGWYRQAPGKEREFVAAITASGGSTYYADSVKGRFTISRDNAKNTVYLQMNSLKPEDTAVYYCAARFSYWKTKRAYDWGQGTQVTVSS” was “high polyreactivity”. The value for “QVQLVESGGGLVQAGGSLRLSCAASGSTFYFYAMGWYRQAPGKERELVATITTRGGSTYYADSVKGRFTISRDHAKNTLDLQMNILKPEDTAVYYCAREAWYKSYSRIKFGYWGQGTQVTVSS” was “high polyreactivity”.

With “QVQLVESGGGLVQAGGSLRLSCAASGSTFYFYVMGWYRQAPGKERELVARISWSGGSTYYADSVKGRFTISRDNAKNTVYLQMNSLKPEDTAVYYCARQYKYPSSGEYDSWGQGTQVTVSS”, the “polyreactivity (PSR sort gate)” value is listed as “low polyreactivity”. Regarding “QVQLVESGGGLVQAGGSLRLSCAASGSTFYGKAMGWYRQAPGKRELLAAITWSGGSTYYADSVKGRFTISRDNAKNTVYLQMNSLKPEDTAVYYCAARNPKSGYNYWGQGTQVTVSS”, the “polyreactivity (PSR sort gate)” value is listed as “low polyreactivity”. The value for “QVQLVESGGGLVQAGGSLRLSCAASGSTFYGYAMGWSRQAPGKERELDAVINYRGDRTYYADSVKGRFTISRDNAKNTVYLQMNSLKPEDTAVYYCAARYRVYYLPGYEYWGQGTQVTVSS” was “high polyreactivity”; that for “QVQLVESGGGLVQAGGSLRLSCAASGSTFYGYAMGWSRQAPGKERELVAAISSSGSRTYYADSVKGRFTISRDNANNPVYLQMNSLKPEDTAVYYCAAVSTLLYYHYYTRDYWGQGTEVTVSS” was “high polyreactivity”; that for “QVQLVESGGGLVQAGGSLRLSCAASGSTFYGYAMGWYRQAPGKERELVAAITRSGGSTYYADSVKGRFTISRDNAKNTVYLQMNSLKPEDSEVYYCNKYGYKGGVGYDYWGQGTEVTVSS” was “high polyreactivity”. On to “QVQLVESGGGLVQAGGSLRLSCAASGSTFYGYAMGWYRQAPGKERELVAAITRSGGSTYYADSVKGRFTISRDNAKNTVYLQMNSLKPEDTAVYYCAAEFRYSRVYGYNYWGQGSQVTVSS”, for which the “polyreactivity (PSR sort gate)” value is “high polyreactivity”.

For the sequence “QVQLVESGGGLVQAGGSLRLSCAASGSTFYGYAMGWYRQAPGKERELVAVISWRGTSTYYADSVKGRFTISRDNAKNTVYLQMNSLKPEDTAVYYCAARGLWPYDYWGQGTQVTVSS”, the “polyreactivity (PSR sort gate)” value was “low polyreactivity”.

For “QVQLVESGGGLVQAGGSLRLSCAASGSTFYGYGMGWYRQAPGKERELVAAITGSGDTTYYADSVKGRFTISRDNAKNTVYLQMNSLKPEDTAVYYCAADLTVRYDYWGQGTQVTVSS”, the “polyreactivity (PSR sort gate)” value was “low polyreactivity”.

The values are drawn from the nanobody polyreactivity screen of Harvey et al. (2022).
